Starred links: 1 amine or outer side, 2 acyl side, 3 side chain; linkers in the order of their positions; H or OH if unused. Non-standard residues stand in square brackets, D forms with d. Groups on a side chain read outwards from the residue. *: point of attachment. Tet2 = (S)-2-amino-4-(1H-tetrazol-5-yl)butanoic acid, O=C([C@H](CCc1nn[nH]n1)N[*:1])[*:2]; Ala(1H-tetrazol-5-yl) = N[C@@H](Cc1nnn[nH]1)C(=O)O; C18 diacid = O=C(O)CCCCCCCCCCCCCCCCC(=O)*; Dip = N[C@H](C(=O)O)C(c1ccccc1)c1ccccc1; His(τ-Me) = Cn1cnc(C[C@H](N)C(=O)O)c1; Palmitoyl = CCCCCCCCCCCCCCCC(=O)*; β3hF = N[C@H](CC(=O)O)Cc1ccccc1; His(1-Me) = 1-methylhistidine; Isovaleryl = CC(C)CC(=O)*; AEEA = NCCOCCOCC(=O)O; Ahx = NCCCCCC(=O)O
T1: human ferroportin (SLC40A1) fused in frame with GFP, stably expressed in HEK293 cells (human, UniProt Q9NP59 1-571)
T1 sequence (looked up): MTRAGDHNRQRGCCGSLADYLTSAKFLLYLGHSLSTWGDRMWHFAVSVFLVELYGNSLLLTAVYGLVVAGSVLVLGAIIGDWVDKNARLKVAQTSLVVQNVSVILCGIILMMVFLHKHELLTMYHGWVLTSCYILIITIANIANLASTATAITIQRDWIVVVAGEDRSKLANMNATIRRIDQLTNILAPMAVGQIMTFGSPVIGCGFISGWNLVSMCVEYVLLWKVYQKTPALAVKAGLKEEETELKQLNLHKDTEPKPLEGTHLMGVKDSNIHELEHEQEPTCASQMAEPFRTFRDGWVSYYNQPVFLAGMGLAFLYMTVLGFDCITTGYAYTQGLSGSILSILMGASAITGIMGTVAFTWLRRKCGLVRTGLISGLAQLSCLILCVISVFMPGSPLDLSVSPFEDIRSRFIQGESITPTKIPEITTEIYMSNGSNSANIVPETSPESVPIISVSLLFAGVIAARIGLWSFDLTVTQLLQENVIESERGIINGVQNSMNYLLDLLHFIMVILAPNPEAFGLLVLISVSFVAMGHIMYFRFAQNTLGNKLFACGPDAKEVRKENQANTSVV

B1: Isovaleric Acid-[Tet1]-T-H-[Dpa]-P-A-I-[Lys(Ac)]-[bhPhe]-[(D)Lys]-A-NH2 (peptide)
peptide: Isovaleryl-[Ala(1H-tetrazol-5-yl)]TH[Dip]PAIK(Ac)[β3hF][dK]A-NH2
SMILES: CC[C@H](C)[C@H](NC(=O)[C@H](C)NC(=O)[C@@H]1CCCN1C(=O)[C@@H](NC(=O)[C@H](Cc1c[nH]cn1)NC(=O)[C@@H](NC(=O)[C@H](Cc1nnn[nH]1)NC(=O)CC(C)C)[C@@H](C)O)C(c1ccccc1)c1ccccc1)C(=O)N[C@@H](CCCCNC(C)=O)C(=O)N[C@H](CC(=O)N[C@H](CCCCN)C(=O)N[C@@H](C)C(N)=O)Cc1ccccc1
B2: Isovaleric Acid-E-T-H-[Dpa]-P-[(D)Lys]-I-[(D)Lys]-[bhPhe]-[Lys(Ahx_Palm)]-NH2 (peptide)
peptide: Isovaleryl-ETH[Dip]P[dK]I[dK][β3hF]K([Ahx-Palmitoyl])-NH2
SMILES: CCCCCCCCCCCCCCCC(=O)NCCCCCC(=O)NCCCC[C@H](NC(=O)C[C@H](Cc1ccccc1)NC(=O)[C@@H](CCCCN)NC(=O)[C@@H](NC(=O)[C@@H](CCCCN)NC(=O)[C@@H]1CCCN1C(=O)[C@@H](NC(=O)[C@H](Cc1c[nH]cn1)NC(=O)[C@@H](NC(=O)[C@H](CCC(=O)O)NC(=O)CC(C)C)[C@@H](C)O)C(c1ccccc1)c1ccccc1)[C@@H](C)CC)C(N)=O
B3: Isovaleric Acid-E-T-H-[Dpa]-P-A-I-[(D)Lys]-A-[Lys(Ahx_Palm)]-[(D)Lys]-A-NH2 (peptide)
peptide: Isovaleryl-ETH[Dip]PAI[dK]AK([Ahx-Palmitoyl])[dK]A-NH2
SMILES: CCCCCCCCCCCCCCCC(=O)NCCCCCC(=O)NCCCC[C@H](NC(=O)[C@H](C)NC(=O)[C@@H](CCCCN)NC(=O)[C@@H](NC(=O)[C@H](C)NC(=O)[C@@H]1CCCN1C(=O)[C@@H](NC(=O)[C@H](Cc1c[nH]cn1)NC(=O)[C@@H](NC(=O)[C@H](CCC(=O)O)NC(=O)CC(C)C)[C@@H](C)O)C(c1ccccc1)c1ccccc1)[C@@H](C)CC)C(=O)N[C@H](CCCCN)C(=O)N[C@@H](C)C(N)=O
B4: Isovaleric Acid-[Tet2]-T-H-[Dpa]-P-A-I-[Lys(Ac)]-[bhPhe]-[(D)Lys]-A-NH2 (peptide)
peptide: Isovaleryl-[Tet2]TH[Dip]PAIK(Ac)[β3hF][dK]A-NH2
SMILES: CC[C@H](C)[C@H](NC(=O)[C@H](C)NC(=O)[C@@H]1CCCN1C(=O)[C@@H](NC(=O)[C@H](Cc1c[nH]cn1)NC(=O)[C@@H](NC(=O)[C@H](CCc1nn[nH]n1)NC(=O)CC(C)C)[C@@H](C)O)C(c1ccccc1)c1ccccc1)C(=O)N[C@@H](CCCCNC(C)=O)C(=O)N[C@H](CC(=O)N[C@H](CCCCN)C(=O)N[C@@H](C)C(N)=O)Cc1ccccc1
B5: Isovaleric Acid-E-T-H-[Dpa]-P-[Lys(Ahx_Palm)]-I-[(D)Lys]-[bhPhe]-[Lys(Ac)]-NH2 (peptide)
peptide: Isovaleryl-ETH[Dip]PK([Ahx-Palmitoyl])I[dK][β3hF]K(Ac)-NH2
SMILES: CCCCCCCCCCCCCCCC(=O)NCCCCCC(=O)NCCCC[C@H](NC(=O)[C@@H]1CCCN1C(=O)[C@@H](NC(=O)[C@H](Cc1c[nH]cn1)NC(=O)[C@@H](NC(=O)[C@H](CCC(=O)O)NC(=O)CC(C)C)[C@@H](C)O)C(c1ccccc1)c1ccccc1)C(=O)N[C@H](C(=O)N[C@H](CCCCN)C(=O)N[C@H](CC(=O)N[C@@H](CCCCNC(C)=O)C(N)=O)Cc1ccccc1)[C@@H](C)CC
B6: Isovaleric Acid-[Tet1]-T-[(1-Me)His]-[Dpa]-P-A-I-[bhPhe]-[(D)Lys]-A-NH2 (peptide)
peptide: Isovaleryl-[Ala(1H-tetrazol-5-yl)]T[His(τ-Me)][Dip]PAI[β3hF][dK]A-NH2
SMILES: CC[C@H](C)[C@H](NC(=O)[C@H](C)NC(=O)[C@@H]1CCCN1C(=O)[C@@H](NC(=O)[C@H](Cc1cn(C)cn1)NC(=O)[C@@H](NC(=O)[C@H](Cc1nnn[nH]1)NC(=O)CC(C)C)[C@@H](C)O)C(c1ccccc1)c1ccccc1)C(=O)N[C@H](CC(=O)N[C@H](CCCCN)C(=O)N[C@@H](C)C(N)=O)Cc1ccccc1
B7: Isovaleric Acid-E-T-A-[Dpa]-P-A-I-[(D)Lys]-[bhPhe]-[Lys(Ahx_Palm)]-[(D)Lys]-A-NH2 (peptide)
peptide: Isovaleryl-ETA[Dip]PAI[dK][β3hF]K([Ahx-Palmitoyl])[dK]A-NH2
SMILES: CCCCCCCCCCCCCCCC(=O)NCCCCCC(=O)NCCCC[C@H](NC(=O)C[C@H](Cc1ccccc1)NC(=O)[C@@H](CCCCN)NC(=O)[C@@H](NC(=O)[C@H](C)NC(=O)[C@@H]1CCCN1C(=O)[C@@H](NC(=O)[C@H](C)NC(=O)[C@@H](NC(=O)[C@H](CCC(=O)O)NC(=O)CC(C)C)[C@@H](C)O)C(c1ccccc1)c1ccccc1)[C@@H](C)CC)C(=O)N[C@H](CCCCN)C(=O)N[C@@H](C)C(N)=O
B8: Isovaleric Acid-E-T-H-[Dpa]-P-A-I-[bhPhe]-[(D)Lys]-A-NH2 (peptide)
peptide: Isovaleryl-ETH[Dip]PAI[β3hF][dK]A-NH2
SMILES: CC[C@H](C)[C@H](NC(=O)[C@H](C)NC(=O)[C@@H]1CCCN1C(=O)[C@@H](NC(=O)[C@H](Cc1c[nH]cn1)NC(=O)[C@@H](NC(=O)[C@H](CCC(=O)O)NC(=O)CC(C)C)[C@@H](C)O)C(c1ccccc1)c1ccccc1)C(=O)N[C@H](CC(=O)N[C@H](CCCCN)C(=O)N[C@@H](C)C(N)=O)Cc1ccccc1
B9: Isovaleric Acid-L-T-[(1Me)His]-[Dpa]-P-A-I-[Lys(Ahx_Palm)]-[bhPhe]-NH2 (peptide)
peptide: Isovaleryl-LT[His(τ-Me)][Dip]PAIK([Ahx-Palmitoyl])[β3hF]-NH2
SMILES: CCCCCCCCCCCCCCCC(=O)NCCCCCC(=O)NCCCC[C@H](NC(=O)[C@@H](NC(=O)[C@H](C)NC(=O)[C@@H]1CCCN1C(=O)[C@@H](NC(=O)[C@H](Cc1cn(C)cn1)NC(=O)[C@@H](NC(=O)[C@H](CC(C)C)NC(=O)CC(C)C)[C@@H](C)O)C(c1ccccc1)c1ccccc1)[C@@H](C)CC)C(=O)N[C@H](CC(N)=O)Cc1ccccc1
B10: Isovaleric Acid-[Tet2]-T-[(1-Me)His]-[Dpa]-P-A-I-[Lys(Ac)]-[bhPhe]-[(D)Lys]-NH2 (peptide)
peptide: Isovaleryl-[Tet2]T[His(τ-Me)][Dip]PAIK(Ac)[β3hF][dK]-NH2
SMILES: CC[C@H](C)[C@H](NC(=O)[C@H](C)NC(=O)[C@@H]1CCCN1C(=O)[C@@H](NC(=O)[C@H](Cc1cn(C)cn1)NC(=O)[C@@H](NC(=O)[C@H](CCc1nn[nH]n1)NC(=O)CC(C)C)[C@@H](C)O)C(c1ccccc1)c1ccccc1)C(=O)N[C@@H](CCCCNC(C)=O)C(=O)N[C@H](CC(=O)N[C@H](CCCCN)C(N)=O)Cc1ccccc1
B11: Isovaleric Acid-[Tet1]-T-[(1-Me)His]-[Dpa]-P-A-I-[Lys(Ac)]-[bhPhe]-[(D)Lys]-A-NH2 (peptide)
peptide: Isovaleryl-[Ala(1H-tetrazol-5-yl)]T[His(τ-Me)][Dip]PAIK(Ac)[β3hF][dK]A-NH2
SMILES: CC[C@H](C)[C@H](NC(=O)[C@H](C)NC(=O)[C@@H]1CCCN1C(=O)[C@@H](NC(=O)[C@H](Cc1cn(C)cn1)NC(=O)[C@@H](NC(=O)[C@H](Cc1nnn[nH]1)NC(=O)CC(C)C)[C@@H](C)O)C(c1ccccc1)c1ccccc1)C(=O)N[C@@H](CCCCNC(C)=O)C(=O)N[C@H](CC(=O)N[C@H](CCCCN)C(=O)N[C@@H](C)C(N)=O)Cc1ccccc1
B12: Isovaleric Acid-E-A-H-[Dpa]-P-A-I-[(D)Lys]-[bhPhe]-[Lys(Ahx_Palm)]-[(D)Lys]-A-NH2 (peptide)
peptide: Isovaleryl-EAH[Dip]PAI[dK][β3hF]K([Ahx-Palmitoyl])[dK]A-NH2
SMILES: CCCCCCCCCCCCCCCC(=O)NCCCCCC(=O)NCCCC[C@H](NC(=O)C[C@H](Cc1ccccc1)NC(=O)[C@@H](CCCCN)NC(=O)[C@@H](NC(=O)[C@H](C)NC(=O)[C@@H]1CCCN1C(=O)[C@@H](NC(=O)[C@H](Cc1c[nH]cn1)NC(=O)[C@H](C)NC(=O)[C@H](CCC(=O)O)NC(=O)CC(C)C)C(c1ccccc1)c1ccccc1)[C@@H](C)CC)C(=O)N[C@H](CCCCN)C(=O)N[C@@H](C)C(N)=O
B13: Isovaleric Acid-[Tet1]-T-[(1-Me)His]-[Dpa]-P-A-I-[bhPhe]-[(D)Lys]-NH2 (peptide)
peptide: Isovaleryl-[Ala(1H-tetrazol-5-yl)]T[His(τ-Me)][Dip]PAI[β3hF][dK]-NH2
SMILES: CC[C@H](C)[C@H](NC(=O)[C@H](C)NC(=O)[C@@H]1CCCN1C(=O)[C@@H](NC(=O)[C@H](Cc1cn(C)cn1)NC(=O)[C@@H](NC(=O)[C@H](Cc1nnn[nH]1)NC(=O)CC(C)C)[C@@H](C)O)C(c1ccccc1)c1ccccc1)C(=O)N[C@H](CC(=O)N[C@H](CCCCN)C(N)=O)Cc1ccccc1
B14: Isovaleric Acid-E-T-H-[Dpa]-P-A-I-[Lys(1Peg2_1Peg2_Ahx_C18_Diacid-[(D)Lys]-[bhPhe]-[(D)Lys]-A-NH2 (peptide)
peptide: Isovaleryl-ETH[Dip]PAIK([AEEA-AEEA-Ahx-C18 diacid])[dK][β3hF][dK]A-NH2
SMILES: CC[C@H](C)[C@H](NC(=O)[C@H](C)NC(=O)[C@@H]1CCCN1C(=O)[C@@H](NC(=O)[C@H](Cc1c[nH]cn1)NC(=O)[C@@H](NC(=O)[C@H](CCC(=O)O)NC(=O)CC(C)C)[C@@H](C)O)C(c1ccccc1)c1ccccc1)C(=O)N[C@@H](CCCCNC(=O)COCCOCCNC(=O)COCCOCCNC(=O)CCCCCNC(=O)CCCCCCCCCCCCCCCCC(=O)O)C(=O)N[C@H](CCCCN)C(=O)N[C@H](CC(=O)N[C@H](CCCCN)C(=O)N[C@@H](C)C(N)=O)Cc1ccccc1

What follows are binders tested against T1, human ferroportin (SLC40A1) fused in … (assay: cell-based or functional assay).

Binder | FPN EC50 [nM]
Isovaleryl-[Tet2]T[His(τ-Me)][Dip]PAIK(Ac)[β3hF][dK]A-NH2 [Isovaleric Acid-[Tet2]-T-[(1-Me)His]-[Dpa]-P-A-I-[Lys(Ac)]-[bhPhe]-[(D)Lys]-A-NH2] | > 3000
B1 | 18.9
Isovaleryl-ET[His(1-Me)][Dip]PAIK(Ac)[β3hF][dK]A-NH2 [Isovaleric Acid-E-T-[(1-Me)His]-[Dpa]-P-A-I-[Lys(Ac)]-[bhPhe]-[(D)Lys]-A-NH2] | > 3000
B2 | 532
B3 | 50.6
B4 | 117
B5 | 91.9
B6 | 241
B7 | 356
Isovaleryl-ATH[Dip]PAI[dK][β3hF]K([Ahx-Palmitoyl])-NH2 [Isovaleric Acid-A-T-H-[Dpa]-P-A-I-[(D)Lys]-[bhPhe]-[Lys(Ahx_Palm)]-NH2] | 40.6
B8 | 915
B9 | > 3000
B10 | > 3000
B11 | > 3000
B12 | 492
B13 | 378
B14 | 325

From patent US20240066131A1 (Protagonist Therapeutics, Inc., priority 2020, published 2024)
